Key:
[1] = molecular target: T1, 125I-labeled activated protein C (human, UniProt P04070 43-197; P04070 212-461, radioiodinated with Na[125I] by Iodogen; positions not stated); experiment: 125I-APC binding to HUVEC monolayers at 4 C, Scatchard analysis
T1 construct: Specific activity 1x10^4 cpm/ng
Description: At the indicated times, cells were washed and bound radioactivity was measured. […] After washing, bound radioactivity was measured. […] Specific binding was determined as described below.
Monolayers of HUVEC in 24-well microplates (Costar) (1×10⁵ cells per well) were washed twice with EDTA/PBS and once with ice-cold HBSS. […] After washing three times with ice-cold HBSS, cells were released with the EDTA buffer, and the bound radioactivity was measured in a gamma counter (Isodata 500). To determine non-specific, calcium-independent adsorption of radioactivity, the cells were washed with EDTA/PBS and residual radioactivity in the cell pellet was measured. Non-specific binding of radioactivity was consistently less than 5% of the specific binding. The data was analyzed using the Enzfitter program (Elsevier Biosoft, Cambridge, U.K.).

human protein C = molecular target: T2, human protein C (human, UniProt P04070 43-461); experiment: summary statement; the direct measurement was 125I-APC on HUVEC, and protein C displaced F1-APC equivalently to APC
T2 construct: also called PC
T2 sequence (P04070 43-461): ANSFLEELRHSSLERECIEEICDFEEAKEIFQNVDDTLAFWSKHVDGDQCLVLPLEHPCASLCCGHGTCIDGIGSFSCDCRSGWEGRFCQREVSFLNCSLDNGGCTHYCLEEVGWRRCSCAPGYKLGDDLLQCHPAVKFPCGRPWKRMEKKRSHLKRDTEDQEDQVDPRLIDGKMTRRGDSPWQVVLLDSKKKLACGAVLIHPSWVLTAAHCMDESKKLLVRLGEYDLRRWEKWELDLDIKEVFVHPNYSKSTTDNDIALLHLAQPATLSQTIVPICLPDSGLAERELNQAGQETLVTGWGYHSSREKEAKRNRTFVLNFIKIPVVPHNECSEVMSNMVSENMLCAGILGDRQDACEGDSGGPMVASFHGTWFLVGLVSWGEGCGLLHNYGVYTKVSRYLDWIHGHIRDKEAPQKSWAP

T1 sequence (P04070 43-197, chain 1 of 2): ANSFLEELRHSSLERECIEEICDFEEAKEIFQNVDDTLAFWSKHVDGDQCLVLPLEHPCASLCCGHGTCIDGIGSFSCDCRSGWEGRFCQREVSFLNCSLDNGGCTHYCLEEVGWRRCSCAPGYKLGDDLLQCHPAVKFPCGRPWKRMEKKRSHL
T1 sequence (P04070 212-461, chain 2 of 2): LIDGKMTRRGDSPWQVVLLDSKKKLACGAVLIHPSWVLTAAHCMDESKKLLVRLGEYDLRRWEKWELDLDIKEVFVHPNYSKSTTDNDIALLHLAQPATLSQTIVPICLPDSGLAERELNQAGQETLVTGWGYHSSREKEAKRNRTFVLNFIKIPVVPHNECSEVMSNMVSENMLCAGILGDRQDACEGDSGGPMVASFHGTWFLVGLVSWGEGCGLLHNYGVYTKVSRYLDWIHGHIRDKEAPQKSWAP

- Kd [1]: 30 nM
- Kd (human protein C): 30 nM
B1: endothelial cell protein C/activated protein C receptor (EPCR), human (receptor)
chain: FCSQDASDGLQRLHMLQISYFRDPYHVWYQGNASLGGHLTHVLEGPDTNTTIIQLQPLQEPESWARTQSGLQSYLLQFHGLVRLVHQERTLAFPLTIRCFLGCELPPEGSRAHVFFEVAVNGSSFVSFRPERALWQADTQVTSGVVTFTLQQLNAYNRTRYELREFLEDTCVQYVQKHISAENTKGSQTSRSYTSLVLGVLVGGFIIAGVAVGIFLCTGGRRC
notes: also called EPCR-1 (clone)

Reference: patent US7063843 (OKLAHOMA MEDICAL RESEARCH FOUNDATION, dated 2006)
